The record followed here is patent US10398755B2, “Clusterin pharmaceuticals and treatment methods using the same” (UNIVERSITY OF SOUTHERN CALIFORNIA, priority 2009, dated 2019).

For one assay, the system named is GST-MMP-9. The assay can be described thus: GST pull-down assay with GST-tagged MMP-9. Format: binding, mouse. Particulars: presence or absence of bacterial lysate. The procedure:
(A) GST-tagged MMP-9 was purified from the bacterial cells transformed by the expression vector, and immobilized to the anti-GST-beads to prepare MMP-9-GST beads. Purified CLU-HA was incubated with MMP-9-GST beads (M-GST) or GST-beads (GST) in the presence (+Lysate) or absence (−Lysate) of bacterial lysate, followed by washing the beads with binding buffer. Bound proteins were resolved on denaturing 8% SDS/PAGE gel for the immunoblotting with anti-HA antibody. CLU cDNA detected in the yeast two hybrid assay, which corresponds to the CLU coding sequence beginning at position 212 from the ATG site, was used to produce a protein band of approximately 40 KDa. (B) Gelatin (20 μg) and CLU (2 μg) were mixed and incubated in the presence or absence of active MMP-9, followed by denaturing 12% SDS/PAGE gel electrophoresis, which then was stained with Coomasie blue. Two subunits of CLU are designated as α and β.
The GST tagged MMP-9 constructs were generated by ligation of the pGB-MMP-9 EcoR I/Sal I inserts into the pGEX 4T vector (Amersham, Piscataway, N.J.). The pGEX 4T MMP-9 constructs were transformed into the E. Coli strain BL21(DE3) (Novagen, Gibbstown, N.J.) for expression. […]
To further confirm the interaction between MMP-9 and CLU that was detected by yeast two hybrid screening, we performed GST pull down assay using recombinant GST-tagged MMP-9 fusion protein. […]

For the next assay, the target named is T1, HA-tagged MMP-9 (Mus musculus, UniProt P41245).
T1 construct: carrying the mouse full length cDNA of Myc-tagged CLU (CLU) or HA-tagged MMP-9 (MMP-9) were transfected; expressed in transfected cells; host or cells: HEK293
Kind of assay: Immunoprecipitation assay in co-transfected HEK293 cells. Format: cell-based. The procedure: (A) pcDNA 3.1 (+) expression vectors carrying the mouse full length cDNA of Myc-tagged CLU (CLU) or HA-tagged MMP-9 (MMP-9) were transfected, alone (CLU or MMP-9) or combined (CLU+MMP-9), into HEK293 cells. Using the whole cell lysates of the transfected cells, immunoprecipitation (IP) with anti-HA antibody was performed to pull down MMP-9, and then the eluted samples were subjected to immunoblotting (denaturing 4-15% gradient SDS/PAGE gel) (IB) using anti-Myc antibody to detect CLU. The bands indicated by arrows are consistent to the forms of CLU undergoing intracellular processing. in, whole cell lysate used as input; IP, immunoprecipitated sample; Unc, Uncleaved CLU protein; β, β subunit of CLU. (B) Confocal microscopy of MMP-9 and CLU in HCLE cells. Nuclei were stained with DAPI, MMP-9 was detected by rhodamine-conjuated antibody, and CLU by FITC-conjugated antibody. In control, primary antibodies were omitted. The images were taken at 400× magnification. […]
Next, we tested whether MMP-9/CLU interaction also occurs in vivo. […] We also recognized that a stronger band of ˜50 KDa, compared with the other two IP lanes, was detected in co-transfected IP lane, which might be a non-glycosylated full-length form of CLU. […]

T1 sequence (P41245 108-730): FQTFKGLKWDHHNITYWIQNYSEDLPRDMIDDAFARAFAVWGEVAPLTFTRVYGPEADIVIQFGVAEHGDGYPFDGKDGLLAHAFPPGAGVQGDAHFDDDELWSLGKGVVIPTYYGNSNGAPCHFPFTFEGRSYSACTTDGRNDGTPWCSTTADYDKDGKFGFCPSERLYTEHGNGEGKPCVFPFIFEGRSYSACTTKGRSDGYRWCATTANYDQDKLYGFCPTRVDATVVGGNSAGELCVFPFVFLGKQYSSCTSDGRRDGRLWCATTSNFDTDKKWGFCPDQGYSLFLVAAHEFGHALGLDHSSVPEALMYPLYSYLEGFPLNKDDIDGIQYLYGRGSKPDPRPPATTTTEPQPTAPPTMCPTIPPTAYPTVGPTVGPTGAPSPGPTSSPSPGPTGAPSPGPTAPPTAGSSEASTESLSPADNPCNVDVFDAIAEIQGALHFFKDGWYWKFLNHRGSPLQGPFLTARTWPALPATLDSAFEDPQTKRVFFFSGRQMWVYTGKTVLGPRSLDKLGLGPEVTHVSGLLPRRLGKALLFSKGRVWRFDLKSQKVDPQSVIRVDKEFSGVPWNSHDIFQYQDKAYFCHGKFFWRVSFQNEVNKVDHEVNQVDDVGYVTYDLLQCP
Chain of GST-MMP-9 (P41245 109-730 limits assumed): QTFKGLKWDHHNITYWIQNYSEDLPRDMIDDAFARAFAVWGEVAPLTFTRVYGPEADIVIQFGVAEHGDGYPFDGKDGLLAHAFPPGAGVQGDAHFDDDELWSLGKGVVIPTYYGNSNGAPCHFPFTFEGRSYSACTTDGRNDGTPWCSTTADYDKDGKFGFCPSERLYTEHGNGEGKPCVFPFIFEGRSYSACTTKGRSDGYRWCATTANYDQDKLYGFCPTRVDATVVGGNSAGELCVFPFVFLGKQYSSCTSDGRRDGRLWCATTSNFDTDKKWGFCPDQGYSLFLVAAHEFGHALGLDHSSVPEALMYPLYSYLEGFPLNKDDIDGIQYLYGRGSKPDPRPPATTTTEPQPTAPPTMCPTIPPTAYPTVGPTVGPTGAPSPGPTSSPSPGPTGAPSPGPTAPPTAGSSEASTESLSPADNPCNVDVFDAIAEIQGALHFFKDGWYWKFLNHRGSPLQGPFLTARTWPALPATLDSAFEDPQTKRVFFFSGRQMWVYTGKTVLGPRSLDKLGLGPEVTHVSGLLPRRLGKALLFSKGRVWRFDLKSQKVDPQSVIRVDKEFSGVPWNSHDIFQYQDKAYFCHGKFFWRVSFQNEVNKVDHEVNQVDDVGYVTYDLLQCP

B1: CLU: secreted disulfide-linked heterodimeric glycoprotein (70-80 KD); assays used recombinant mouse CLU with C-terminal (His)6 (protein, UniProt Q06890 22-448, looked up)
Clusterin: EQEVSDNELQELSTQGSRYINKEIQNAVQGVKHIKTLIEKTNAERKSLLNSLEEAKKKKEDALEDTRDSEMKLKAFPEVCNETMMALWEECKPCLKHTCMKFYARVCRSGSGLVGQQLEEFLNQSSPFYFWMNGDRIDSLLESDRQQSQVLDAMQDSFARASGIIDTLFQDRFFARELHDPHYFSPIGFPHKRPHFLYPKSRLVRSLMSPSHYGPPSFHNMFQPFFEMIHQAQQAMDVQLHSPAFQFPDVDFLREGEDDRTVCKEIRRNSTGCLKMKGQCEKCQEILSVDCSTNNPAQANLRQELNDSLQVAERLTEQYKELLQSFQSKMLNTSSLLEQLNDQFNWVSQLANLTQGEDKYYLRVSTVTTHSSDSEVPSRVTEVVVKLFDSDPITVVLPEEVSKDNPKFMDTVAEKALQEYRRKSRAE
modifications: C-terminal His6 tag
Consider B1, for which the “interaction of HA-tagged CLU with GST-MMP-9” value with GST-MMP-9 is “still interacted even in the presence of the bacterial lysate”. The “co-immunoprecipitation of Myc-tagged CLU with HA-tagged MMP-9” value in the assay with HA-tagged MMP-9 is listed as “interact in vivo even before processing of the proteins”.
